{
  "source": "patent US20240166729A1",
  "about": "(RAMOT AT TEL AVIV UNIVERSITY, published 2024)",
  "key": {"[1]": {"target": "T1, His-tagged EspB (EspB-His), recombinant EPEC EspB (enteropathogenic E. coli (EPEC) O127:H6 …, UniProt Q05129 1-321)", "T1 construct": "also called recombinant EspB (full-length); full-length EspB", "T1 sequence": "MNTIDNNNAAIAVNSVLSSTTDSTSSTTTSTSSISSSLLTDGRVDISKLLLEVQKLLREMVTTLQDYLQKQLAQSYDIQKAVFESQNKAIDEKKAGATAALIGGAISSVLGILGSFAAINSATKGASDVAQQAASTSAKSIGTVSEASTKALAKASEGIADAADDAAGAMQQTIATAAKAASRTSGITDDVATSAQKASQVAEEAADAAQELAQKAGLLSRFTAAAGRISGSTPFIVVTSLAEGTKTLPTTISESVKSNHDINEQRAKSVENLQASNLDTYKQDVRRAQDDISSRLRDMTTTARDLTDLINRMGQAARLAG", "test": "indirect ELISA, 5 ug/ml EspB coated, serial dilution of the antibody, goat anti-human H+L HRP"}, "[2]": {"target": "T2, native EspB of wild-type EPEC", "T2 construct": "also called EPEC EspB", "test": "western blot of normalized culture supernatants after SDS-PAGE, mAb-EspB-B7 as primary antibody, anti-human IgG HRP"}, "[3]": {"target": "T3, C. rodentium EspB (Citrobacter rodentium DBS100)", "T3 construct": "also called EspB of Citrobacter rodentium", "test": "western blot of normalized culture supernatants after SDS-PAGE, mAb-EspB-B7 as primary antibody, anti-human IgG HRP"}, "[4]": {"target": "T4, EHEC EspB", "T4 construct": "also called EspB of enterohemorrhagic E. coli", "test": "western blot of bacterial supernatant with mAb-EspB-B7"}, "[5]": {"target": "T5, Salmonella EspB homolog (Salmonella enterica serovar Typhimurium, UniProt D0ZV21 1-409)", "T5 sequence": "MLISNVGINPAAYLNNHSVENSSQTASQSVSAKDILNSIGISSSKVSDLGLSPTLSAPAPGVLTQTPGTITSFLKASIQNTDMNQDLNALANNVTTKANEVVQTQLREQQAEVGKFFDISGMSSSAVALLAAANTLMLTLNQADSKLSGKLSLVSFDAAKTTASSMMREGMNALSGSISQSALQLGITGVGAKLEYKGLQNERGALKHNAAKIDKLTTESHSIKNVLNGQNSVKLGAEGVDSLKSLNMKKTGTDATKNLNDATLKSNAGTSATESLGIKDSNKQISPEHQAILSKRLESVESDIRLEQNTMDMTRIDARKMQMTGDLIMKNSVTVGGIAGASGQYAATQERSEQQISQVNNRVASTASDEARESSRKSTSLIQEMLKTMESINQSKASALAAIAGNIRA", "test": "western blot of bacterial supernatant with mAb-EspB-B7"}, "[6]": {"target": "T1, His-tagged EspB (EspB-His), recombinant …", "test": "ELISA on coated EspB, 274 mM NaCl"}, "[7]": {"target": "T1, His-tagged EspB (EspB-His), recombinant …", "test": "ELISA on coated EspB, antibody diluted in 3% milk in PBS or in goat or horse serum with 1% human serum (one reading for the bundle of three curves)"}, "[8]": {"target": "T1, His-tagged EspB (EspB-His), recombinant …", "test": "ELISA on coated EspB, 45.6, 68.5 and 137 mM NaCl (one reading for the bundle)"}, "[9]": {"target": "T1, His-tagged EspB (EspB-His), recombinant …", "test": "ELISA (FIG. 4A) and SPR (FIG. 4B): Biacore, EspB amine-coupled on chip, mAb 10-90 nM, steady-state fit"}, "[10]": {"target": "T1, His-tagged EspB (EspB-His), recombinant …", "test": "ELISA on coated EspB, 411 mM NaCl"}, "[11]": {"target": "T1, His-tagged EspB (EspB-His), recombinant …", "test": "ELISA on coated EspB, antibody in 0.1 M citric acid buffer, pH 7.4, 7.0, 6.6 and 5.6 (one reading for the bundle of four curves)"}},
  "data": [
    {"binder": "mAb-EspB-B7 (antibody, V domains shown, also called mAb-B7; B7 IgG1) VH: EVQLLESGGGLVQPGGSLRLSCAASGFTFSHYAMNWVRQAPGKGLEWVSAINSNGDSTYYPDTVKDRFTISRDNSKNTLYLQMNSLRAEDTAVYYCARDRRAGYFDYWGQGTLVTVSS VL: DIVLTQPPSASGTPGQRVTISCSGSRDNIGKNYVSWYQQLPGTAPKLLIYRNNQRPSGVPDRFSGSKSGTSASLAISGLRSEDEADYYCSAWDTSLNAYVFGPGTQLTVL", "values": [
      {"measurement": "EC50 (read off the curve)", "setting": "[1]", "result": "~8", "unit": "nM"},
      {"measurement": "binding result", "setting": "[2]", "result": "binds"},
      {"measurement": "binding result", "setting": "[3]", "result": "binds"},
      {"measurement": "binding result", "setting": "[4]", "result": "binds"},
      {"measurement": "binding result", "setting": "[5]", "result": "no binding"},
      {"measurement": "EC50 (read off the curve)", "setting": "[6]", "result": "~8", "unit": "nM"},
      {"measurement": "EC50 (read off the curve)", "setting": "[7]", "result": "~3", "unit": "nM"},
      {"measurement": "EC50 (read off the curve)", "setting": "[8]", "result": "~3", "unit": "nM"},
      {"measurement": "Kd", "setting": "[9]", "result": 17.4, "unit": "nM"},
      {"measurement": "EC50 (read off the curve)", "setting": "[10]", "result": "~10", "unit": "nM"},
      {"measurement": "EC50 (read off the curve)", "setting": "[11]", "result": "~20", "unit": "nM"}
    ]}
  ]
}
